# Source: US20090098124A1 (MacroGenics, published 2009)
# Changes are numbered by the printed parent chain. In names and notes the source's numbering stands.
# B1: IgG1 Fc mutant A231V, Q386H, V412M (antibody)
# heavy: ASTKGPSVFPLAPSSKSTSGGTAALGCLVKDYFPEPVTVSWNSGALTSGVHTFPAVLQSSGLYSLSSVVTVPSSSLGTQTYICNVNHKPSNTKVDKKVEPKSCDKTHTCPPCPVPELLGGPSVFLFPPKPKDTLMISRTPEVTCVVVDVSHEDPEVKFNWYVDGVEVHNAKTKPREEQYNSTYRVVSVLTVLHQDWLNGKEYKCKVSNKALPAPIEKTISKAKGQPREPQVYTLPPSRDELTKNQVSLTCLVKGFYPSDIAVEWESNGHPENNYKTTPPVLDSDGSFFLYSKLTMDKSRWQQGNVFSCSVMHEALHNHYTQKSLSLSPGK
# B2: IgG1 Fc mutant A378V, N390I, V422I (antibody)
# heavy: B1 heavy with V114A, A261V, H269Q, N273I, M295V, V305I
# B3: IgG1 Fc mutant C229Y, A287T, V379M, P396L, L443V (antibody)
# heavy: B1 heavy with C112Y, V114A, A170T, V262M, H269Q, P279L, M295V, L326V
# B4: IgG1 Fc mutant D221E, D270E, V308A, Q311H, P396L, G402D (antibody)
# heavy: B1 heavy with D104E, V114A, D153E, V191A, Q194H, H269Q, P279L, G285D, M295V
# B5: IgG1 Fc mutant D221Y, M252I, A330G, A339T, T359N, V422I, H433L (antibody)
# heavy: B1 heavy with D104Y, V114A, M135I, A213G, A222T, T242N, H269Q, M295V, V305I, H316L
# B6: IgG1 Fc mutant E269K, K290N, Q311R, H433Y (antibody)
# heavy: B1 heavy with V114A, E152K, K173N, Q194R, H269Q, M295V, H316Y
# B7: IgG1 Fc mutant F243L, V305I, A378D, F404S, P396L (antibody)
# heavy: B1 heavy with V114A, F126L, V188I, A261D, H269Q, P279L, F287S, M295V
# B8: IgG1 Fc mutant F275L, Q362H, N384K, P396L (antibody)
# heavy: B1 heavy with V114A, F158L, Q245H, N267K, H269Q, P279L, M295V
# B9: IgG1 Fc mutant K222N, T335N, K370E, A378V, T394M (antibody)
# heavy: B1 heavy with K105N, V114A, T218N, K253E, A261V, H269Q, T277M, M295V
# B10: IgG1 Fc mutant K246E, V284M, V308A (antibody)
# heavy: B1 heavy with V114A, K129E, V167M, V191A, H269Q, M295V
# B11: IgG1 Fc mutant K246I, Q362H, K370E (antibody)
# heavy: B1 heavy with V114A, K129I, Q245H, K253E, H269Q, M295V
# B12: IgG1 Fc mutant K246N, Q419R, P396L (antibody)
# heavy: B1 heavy with V114A, K129N, H269Q, P279L, M295V, Q302R
# B13: IgG1 Fc mutant K246R, S298N, I377F (antibody)
# heavy: B1 heavy with V114A, K129R, S181N, I260F, H269Q, M295V
# B14: IgG1 Fc mutant K290E, V369A, T393A, P396L (antibody)
# heavy: B1 heavy with V114A, K173E, V252A, H269Q, T276A, P279L, M295V
# B15: IgG1 Fc mutant K290T, N390I, P396L (antibody)
# heavy: B1 heavy with V114A, K173T, H269Q, N273I, P279L, M295V
# B16: IgG1 Fc mutant K326I, S408N, P396L (antibody)
# heavy: B1 heavy with V114A, K209I, H269Q, P279L, S291N, M295V
# B17: IgG1 Fc mutant K326Q, K334E, T359N, T366S (antibody)
# heavy: B1 heavy with V114A, K209Q, K217E, T242N, T249S, H269Q, M295V
# B18: IgG1 Fc mutant K334E, E380D, G446V (antibody)
# heavy: B1 heavy with V114A, K217E, E263D, H269Q, M295V, G329V
# B19: IgG1 Fc mutant P244A, K326I, C367R, S375I, K447T (antibody)
# heavy: B1 heavy with V114A, P127A, K209I, C250R, S258I, H269Q, M295V, K330T
# B20: IgG1 Fc mutant P244H, L358M, V379M, N384K, V397M (antibody)
# heavy: B1 heavy with V114A, P127H, L241M, V262M, N267K, H269Q, V280M, M295V
# B21: IgG1 Fc mutant P247L, A330T, S440G (antibody)
# heavy: B1 heavy with V114A, P130L, A213T, H269Q, M295V, S323G
# B22: IgG1 Fc mutant P247L, I253N, K334N (antibody)
# heavy: B1 heavy with V114A, P130L, I136N, K217N, H269Q, M295V
# B23: IgG1 Fc mutant P247L, W313R, E388G (antibody)
# heavy: B1 heavy with V114A, P130L, W196R, H269Q, E271G, M295V
# B24: IgG1 Fc mutant P343S, P353L, S375I, S383N (antibody)
# heavy: B1 heavy with V114A, P226S, P236L, S258I, S266N, H269Q, M295V
# B25: IgG1 Fc mutant R301H, K340E, D399E (antibody)
# heavy: B1 heavy with V114A, R184H, K223E, H269Q, D282E, M295V
# B26: IgG1 Fc mutant V273I, K326E, L328I, P396L (antibody)
# heavy: B1 heavy with V114A, V156I, K209E, L211I, H269Q, P279L, M295V
# B27: IgG1 Fc mutant V282E, V369I, L406F (antibody)
# heavy: B1 heavy with V114A, V165E, V252I, H269Q, L289F, M295V
# B28: IgG1 Fc mutant V303I, V369F, M428L (antibody)
# heavy: B1 heavy with V114A, V186I, V252F, H269Q, M295V, M311L
# B29: IgG1 Fc mutant V397M, T411A, S415N (antibody)
# heavy: B1 heavy with V114A, H269Q, V280M, T294A, M295V, S298N
# B30: IgG1 Fc mutant D280E, S354F, A431D, L441I (antibody)
# heavy: B1 heavy with V114A, D163E, S237F, H269Q, M295V, A314D, L324I
# B31: IgG1 Fc mutant F243L, R255L, E318K (antibody)
# heavy: B1 heavy with V114A, F126L, R138L, E201K, H269Q, M295V
# B32: IgG1 Fc mutant F275I, K334N, V348M (antibody)
# heavy: B1 heavy with V114A, F158I, K217N, V231M, H269Q, M295V
# B33: IgG1 Fc mutant K334E, T359N, T366S, Q386R (antibody)
# heavy: B1 heavy with V114A, K217E, T242N, T249S, H269R, M295V
# B34: IgG1 Fc mutant P247L, A431V, S442F (antibody)
# heavy: B1 heavy with V114A, P130L, H269Q, M295V, A314V, S325F
# B35: IgG1 Fc mutant P291S; K288E; H268L: A141V (antibody)
# heavy: B1 heavy with A24V, V114A, H151L, K171E, P174S, H269Q, M295V
# B36: IgG1 Fc mutant T256S, V305I, K334E, N390S (antibody)
# heavy: B1 heavy with V114A, T139S, V188I, K217E, H269Q, N273S, M295V
# B37: IgG1 Fc mutant T335N, K370E, A378V, T394M, S424L (antibody)
# heavy: B1 heavy with V114A, T218N, K253E, A261V, H269Q, T277M, M295V, S307L
# Target: soluble dimeric FcγRIIB (extracellular domain fused to hinge-CH2-CH3 of human IgG2) (human) (UniProt P31994)
# Assay: ELISA
row,Molecule,Binding to FcγRIIB (ELISA) (fold decrease)
1,"IgG1 Fc mutant D399E, M428L (from UniProt P01857 1-330) (antibody)",0.5

# Target: soluble monomeric FcγRIIIA (extracellular region joined to linker-AVITAG), allele not stated (human) (UniProt P08637)
# Sequence (P08637 17-208): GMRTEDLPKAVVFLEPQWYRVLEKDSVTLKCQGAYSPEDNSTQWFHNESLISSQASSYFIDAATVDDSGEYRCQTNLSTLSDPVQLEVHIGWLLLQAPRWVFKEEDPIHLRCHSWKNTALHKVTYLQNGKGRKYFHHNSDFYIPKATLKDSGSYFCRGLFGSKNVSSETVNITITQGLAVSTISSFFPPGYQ
# Assay: ELISA
Molecule,Binding to FcγRIIIA (ELISA) (fold increase),Binding to FcγRIIIA (ELISA) (fold decrease)
IgG1 Fc mutant S383N; N384K; T256N; V262L; K218E; R214I; K205E; F149Y; K133M (from UniProt P01857 1-330) (antibody),0.5,–
"IgG1 Fc mutant S298N, S407R (from UniProt P01857 1-330) (antibody)",0.5,–
IgG1 Fc mutant S407I (from UniProt P01857 1-330) (antibody),0.5,–
"IgG1 Fc mutant D399E, M428L (from UniProt P01857 1-330) (antibody)",–,0.5
"IgG1 Fc mutant D312E, K327N, I378S (from UniProt P01857 1-330) (antibody)",0.5,–
IgG1 Fc mutant H310Y; T289A; G337E (from UniProt P01857 1-330) (antibody),0.5,–
IgG1 Fc mutant V348M; K334N; F275I; Y202M; K147T (from UniProt P01857 1-330) (antibody),0.5,–

# Target: T1, soluble dimeric FcγRIIB (extracellular domain fused to hinge-CH2-CH3 of human IgG2) (human, UniProt P31994 43-217)
# T1 construct: extracellular domain; also called FcRIIB; FcRIIB-Fc; not shown: human IgG2 hinge-CH2-CH3
# T1 sequence (looked up): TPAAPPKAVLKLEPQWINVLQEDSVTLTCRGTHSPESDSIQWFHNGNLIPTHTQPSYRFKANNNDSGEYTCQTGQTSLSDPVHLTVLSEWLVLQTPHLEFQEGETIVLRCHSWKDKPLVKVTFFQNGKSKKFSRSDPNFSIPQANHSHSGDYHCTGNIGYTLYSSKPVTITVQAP
# Assay: ELISA
Molecule,Binding to FcγRIIB (ELISA),binding result
B1,6 fold increase,–
B2,5 fold increase,–
B3,10 fold increase,–
B4,0.1 fold increase,–
B5,6 fold increase,–
B6,–,no binding
B7,5.4 fold increase,–
B8,3.7 fold increase,–
B9,7 fold increase,–
B10,–,no binding
B11,0.5 fold decrease,–
B12,4.8 fold increase,–
B13,5 fold increase,–
B14,6.7 fold increase,–
B15,6.1 fold increase,–
B16,9.3 fold increase,–
B17,5 fold increase,–
B18,–,no binding
B19,3 fold increase,–
B20,1.5 fold increase,–
B21,0.25 fold decrease,–
B22,2.5 fold increase,–
B23,1 fold increase,–
B24,6 fold increase,–
B25,0.25 fold decrease,–
B26,10.8 fold increase,–
B27,7 fold increase,–
B28,–,no binding
B29,5 fold increase,–

# Target: T2, soluble monomeric FcγRIIIA (extracellular region joined to linker-AVITAG), allele not stated (human, UniProt P08637 17-208)
# T2 construct: extracellular domain; also called FcRIIIA; CD16A; not shown: linker-AVITAG
# T2 sequence (P08637 17-208): as the sequence (P08637 17-208) above
# Assay: ELISA
Molecule,Binding to FcγRIIIA (ELISA),binding result
B1,1.5 fold increase,–
B2,0.5 fold increase,–
B3,0.25 fold decrease,–
B4,3.6 fold increase,–
B5,2.5 fold increase,–
B30,3 fold increase,–
B6,–,no binding
B31,1 fold increase,–
B7,1.6 fold increase,–
B32,0.5 fold increase,–
B8,2.2 fold increase,–
B9,1 fold increase,–
B10,–,no binding
B11,–,no binding
B12,1.1 fold increase,–
B13,1 fold increase,–
B14,1.3 fold increase,–
B15,2.8 fold increase,–

Molecule,Binding to FcγRIIIA (ELISA),binding result
B16,4 fold increase,–
B17,1.5 fold increase,–
B18,–,no binding
B33,1 fold increase,–
B20,1.75 fold increase,–
B21,0.75 fold increase,–
B34,1 fold,–
B22,3 fold increase,–
B23,1.5 fold increase,–
B35,0.5 fold decrease,–
B24,0.5 fold increase,–
B25,0.5 fold decrease,–
B36,1.5 fold increase,–
B37,0.5 fold increase,–
B26,1.3 fold increase,–
B27,0.5 fold increase,–
B28,–,no binding
B29,0.25 fold increase,–
